Assay: soluble on expression in E. coli; label from the status in PepcDB or PDB records

Sequence	soluble on expression in E. coli
MVPNDVFQKLLYDLFCMWHGVQRHYDPPIPDSEEQRMQKVKNLICKLLTEIDGRVNRIKQNNNHQRGQDFYEEWTMLTWNVLCITNRLQNSLSQVVVSNEDKMIYSRLNQALVELVNYSRDFLPFPSTNEMDPEYVMLRDKMNQTMMSLHGLYRQMNSAMYQTPDDVENFRIHLQTFGDDILVPCLEQYKTFCNKNCMALWQQVRLVQVERMRDQVKDQGCSIENLVSFYSNMTYVLAVLGARLQGFRYDLTVNKKFFNFDPVVHMSEAVFAALELLMSNCVLATEPSTSAILVTNNLFAMNCGALARGVVFKDFEIQVVSEETAEHIQSEMSRQRLLQHPAPIGNVPSAALLAMKPTTGTKRSNAASNSDSANNTAHKKSDVNSKESVIIYPVYNSKNRYWAATYPHLLCTTRQKGRQSIHSSYQDLSPSGTNSSASNDKNGSGKRPIFYFHIKATMFSPSGRFATAHTLSLPFTIATRRNQDCQVQRMMSSYTATIFWLYGCNTQDGLLLQWIDGGMHWDHFKHLFKQHFKLLKYKLQCPDCCSGQDGARVNGVQQIVTFKNVLCPHLRYECNSTNVRFSVWRGMLELLQIFHDTRNNVRKLWEMGFLMGFMEFEEVDNMLEKHKSALIMRLSFVTGGTICFTVKSLAHTLDPRSSRPIHLEPLDLKRLQQKCLKDYLRDIADAEKVKYILTANEEVINIESLLESLKELGVKPENPSESREISSNITHMGDIDTMQHIKFTAMRIAVVTCKVKPPSADQEENDANGLNRLQATLGTRDDDFLRDFVQLANAYGKSKQDLYEALDFINDQYQPGPIRKTSSIYDSSHHIPLAPAPIARNMGPTMISPPPAKVRPPAVDTYPRSSQFELVRSDSDHLPPSNTMMRVSCSPPKPPSQLPSPNQTTIPHMYNNGIPMIYEHHQQQRFDY	not soluble
MSLMIVYKGEKMQFIRVNTLKINPEVLKKRLENKGVVLEKTFLDYAFEVKKSPFSIGSTPEYLFGYYMPQSISSMIPPIVLNPREDDFILDMCAAPGGKTTHLAQLMKNKGTIVAVEISKTRTKALKSNINRMGVLNTIIINADMRKYKDYLLKNEIFFDKILLDAPCSGNIIKDKNRNVSEEDIKYCSLRQKELIDIGIDLLKKDGELVYSTCSMEVEENEEVIKYILQKRNDVELIIIKANEFKGINIKEGYIKGTLRVFPPNEPFFIAKLREGGSHHHHHH	soluble
SPINPYKDHMSVLKAYYAMNMEPNSDELLKISIAVGLPQEFVKEWFEQRKVYQYSNSR	soluble
MAGDPMKKLVTATTLTAGIGTALVGQAHHADAAENYTNYNNYNYNTTQTTTTTTTTTTTSSISHSGNLYTAGQCTWYVYDKVGGEIGSTWGNANNWAAAAQGAGFTVNHTPSKGAILQSSEGPFGHVAYVESVNSDGSVTISEMNYSGGPFSVSSRTISASEAGNYNYIHILEHHHHHH	not soluble
MSTQKRAIAKTDMLKFTETSQPIGQKKYVELSKDIFIFSYLCGGINFTDIANLTQENIVNGRLHYIRQKTGKLIKIGIPQEAMQIIKKYTDESNGYLFPILNVKVHKTALQKQNRIHKIRGKVNDILKTLGKRLGIEANITTYVARHSFASVLKKSGVNIALISEALGHSDLATTQIYLDSFDNEQVDEAMKNLLEHHHHHH	not soluble
MNTRIKPVRSFLFVPGNKESMLDKAAQAGADALILDLEDSVPSPEKTAARELVAKKIPELIAQNQRIWVRINRTAHIYDLDDILAVAPAGIEGIYISKPGGPEDVYMASCMIAEAEARANLPLGSIGLIPLLETARSMQLCYDIAQMPRVAGIVGATARNADMGRALKFVWTAEGRETEYLKSRVVMAARAAGKQAIGGLWQQIKDLDGLAKSSAFDRQLGMSGELVLHPMQVETINRTYTPTAEDVAYYQGMIEALDAAQAQGRASVMYEGEHIDIAHVKTAHEVIALAQSFGNLEHHHHHH	soluble
MTENKGIMLAKSVQKHAGRAKEKILQNLGKVDRTADEIFDDHLNNFNRQQASANRLQKEFNNYIRCVRAAQAASKTLMDSVCEIYEPQWSGYDALQAQTGASESLWADFAHKLGDQVLIPLNTYTGQFPEMKKKVEKRNRKLIDYDGQRHSFQNLQANANKRKDDVKLTKGREQLEEARRTYEILNTELHDELPALYDSRILFLVTNLQTLFATEQVFHNETAKIYSELEAIVDKLATESQRGS	soluble
MGSDKIHHHHHHMPSIFEKYQLKQVINASGRMTALGVSTPRPEVIDAAMAGMNQYFEMKDLVNKTGEYIAKLLEVEGATVVSCASAGLAQSVAAVLVQDSDWLLENLHVTPIENNEIVLPKGHNVNFGAPVGTMVALGGGKLVEAGYANECSAAQLAAAITPRTAAILYIKSHHCVQKSMLSVEQAAVVARTHNLPLIVDAAAEEDLQCYYRVGADLVIYSGAKAIEGPTSGLVIGKTQYVEWVKRQSAGIGRAMKVGKEGIVGLTCAIELYLRAQKESGAEMVEKMAPFIDTLNTFNGVSARVVWDSAGRDIARTEIKFDEAVTGIATGELVDALKQGEYAIYFRGYKANEGIIEADVRSVDRAQLAIVARRIGEVINQEKQA	not soluble
MREIINKLNPIIIDKADKKFGVSRILKKYDGKPVYIKDVNGFEVVGNLCSRETLSKIFNVKKEDFIFFMLDAMEKEKEGKLKINNKLKEKYIVEIPENIKNWPIPIYYEKDAGAYITSGVVVVYDKDYGYNLSIHRILVKDDYLVIRMVEQRHLHFLYNKALKEKGYLDVAIVIGVHPAVLLAGSTSADITFDELKFAAALLGGEIGVFELDNGLLVPEAEFIIEGKILPEVDDEGPFVDITGTYDIVRKQPIIKIEKLYRKEKPIFHALLPGGIEHKTLMGMPQEPRILKGVRNTVPTVKNIVLTEGGCCWLHAVVQIEKRTEGDGKNAILAAFASHPSLKHVIVVDDDINIFDINDVEYAIATRVQGDKDIVIISGAKGSSLDPSSDLKNKLTAKVGVDATMSLIKGREHFERAKIPDKLEHHHHHH	soluble

— the DeepSol protein solubility set
